Experimental data from patent publication US20120100604A1, “METHODS AND COMPOSITIONS FOR GENERATING SELF ATTENUATING GENETIC CIRCUITRY” (THE REGENTS OF THE UNIVERSITY OF CALIFORNIA, priority 2008, published 2012).

Assays:
[1] = tested on: human satellite cells; experiment: Myogenic regenerative capacity of human satellite cells (proliferating fusion-competent myoblasts, desmin/BrdU); assay type: cell-based; conditions: young and old human satellite cells in culture
Description: Myofiber and satellite cell cultures were isolated from basal state human biopsies, in a manner similar to those previously described for the mouse model (Conboy et al. (2003) Science 302:1575-1577). Whole muscle biopsies were prepared for myofiber fragments by enzymatic digestion −37° C. in DMEM (Invitrogen, Carlsbad, Calif.)/Pen-Strep (Invitrogen)/0.2% Collagenase Type IIA (Sigma), trituration, and multiple sedimentation and washing procedures. Isolated satellite cells and myofibers were resuspended in growth medium (Ham's F10 nutrient mixture—Mediatech, Inc., Herndon, Va.), 10% BGS, 5 ng/ml hbFGF (Invitrogen) and 1% Pen-Strep, and cultured on Matrigel (diluted 1:250). Blood was collected from subjects for sera isolation. Briefly, blood cells were coagulated followed by centrifugation at 8,000 rpm, 4° C. in a microfuge for 3 minutes. […]
To examine effects of TGF-β on myogenic properties of human muscle stem cells, exogenous molecule was added to young and old human satellite cells in culture. Myogenic capacity was determined based on numbers of fusion-competent, proliferating myoblasts, e.g., cells that rapidly (in approximately 2 hours) incorporate BrdU, co-express desmin and MyoD and fuse into eMyHC+myotubes when transferred to mitogen-low medium. […]

[2] = tested on: MAPK pathway / Notch in human satellite cells; experiment: Western blot of Delta, active Notch and pERK in human satellite cells cultured with MAPK agonists and antagonists; assay type: cell-based; conditions: human satellite cells in culture
Description: Myofiber and satellite cell cultures were isolated from basal state human biopsies, in a manner similar to those previously described for the mouse model (Conboy et al. (2003) Science 302:1575-1577). Whole muscle biopsies were prepared for myofiber fragments by enzymatic digestion −37° C. in DMEM (Invitrogen, Carlsbad, Calif.)/Pen-Strep (Invitrogen)/0.2% Collagenase Type IIA (Sigma), trituration, and multiple sedimentation and washing procedures. Isolated satellite cells and myofibers were resuspended in growth medium (Ham's F10 nutrient mixture—Mediatech, Inc., Herndon, Va.), 10% BGS, 5 ng/ml hbFGF (Invitrogen) and 1% Pen-Strep, and cultured on Matrigel (diluted 1:250). Blood was collected from subjects for sera isolation. Briefly, blood cells were coagulated followed by centrifugation at 8,000 rpm, 4° C. in a microfuge for 3 minutes.
For Western Blot analysis, whole skeletal muscle lysates were prepared in lysis buffer (50 mM Tris, 150 mM NaCl, 1% NP40, 0.25% sodium deoxycholate and 1 mM EDTA, pH 7.4) with addition of protease inhibitor cocktail (Sigma) and 1 mM PMSF. Phosphatase activity was inhibited by 1 mM sodium fluoride and 1 mM sodium orthovanadate. For most assays, 30 μg protein extracts were run on pre-cast SDS PAGE gels (BioRad). Primary antibodies were diluted in 5% non-fat milk/1× PBST, and nitrocellulose membranes were incubated with antibody mixtures overnight at 4° C. HRP-conjugated secondary antibodies (Santa Cruz Biotech) were diluted 1:1000 in 1× PBST/1% BSA and incubated for 1 hour at room temperature. Blots were developed using Western Lightning ECL reagent (Perkin Elmer) and analyzed with Bio-Rad Gel Doc/Chemi Doc Imaging System and Quantity One software. Results were quantified by digitizing the data and normalizing pixel density of examined protein by actin-specific pixel density.
The levels of Delta, amounts of active Notch and the efficiency of myogenic responses in human satellite cells cultured in the presence of agonists and antagonists of MAPK pathway were investigated. […]

[3] = tested on: muscle stem cells (satellite cells); experiment: Myogenic responses of mouse muscle stem cells in young or old mouse sera (TGF-β1 depletion and add-back, Wnt3A, FRP3); assay type: cell-based
Description: To examine the relative role of circulating TGF-β1 in the age-specific inhibition of muscle stem cell responses, TGF-β1 was depleted from young and old mouse sera and then added back in a range of concentrations. Muscle stem cells derived from young and old mice were cultured in the presence of young and old mouse sera that differed only in the levels of TGF-β1, and the regenerative responses of these cells were assayed. Serum was depleted of TGF-β1 by incubation with a TGF-β1 specific antibody (or an isotype-matched control IgG) followed by binding and removal of the TGF-β1-antibody complexes (or IgG control antibody complexes, e.g. control sera) using protein G-coated agarose beads. The success in the TGF-β1 depletion was confirmed by ELISA. The myogenic regenerative potential of muscle stem cells was quantified based on their ability to rapidly (overnight) generate de-novo myogenic lineages: BrdU-incorporating desmin+myoblasts (myogenic proliferation) that differentiate into post-mitotic eMyHC+myotubes (myogenic differentiation). The time course of such de-novo in vitro myogenesis that recapitulates the in vivo muscle repair is shown in FIG. 14A-D. Myogenic proliferation (at 24-28 hours of culture) and myogenic differentiation (at 48-72 hours of culture) were consistently higher for young satellite cells as compared to old satellite cells and in young sera as compared to old sera at all time points (FIGS. 17 and 18). The non-myogenic, desmin negative proliferating fibroblasts (known to contaminate satellite cell preparations at ˜2-5% and to expand in the presence of old sera or high levels of TGF-β (Carlson et al., 2008) were less numerous in cultures with experimentally calibrated levels of TGF-β1 (FIG. 15) and also declined in cultures with exogenous Wnt 3A (FIG. 16A).
Recombinant TGF-β1 was added at a range of concentrations to these mouse sera (depleted from endogenous TGF-β1) and assayed the regenerative responses of muscle stem cells, as above. […] The levels of TGF-β1 that are permissive for myogenic responses correspond to the range of bioactive TGF-β1 found in young blood sera, while the inhibitory range corresponds to the levels typical of aged circulation. The threshold mode of TGF-β1-imposed inhibition of muscle repair established here, also correlate well with the results of heterochronic parabiosis.
A similar rescue of satellite cell responses in the presence of old serum was reported to be achieved by inhibition of Wnt via FRPs, and exogenous Wnt3A was reported to inhibit satellite cell myogenic responses, in favor of fibroblast trans-differentiation (Brack et al., (2007), Science, 317:807-810). Thus, an investigation was conducted to determine whether Wnt was potentially synergistic with the TGF-β1-dependent attenuation of myogenic potential. Myogenic potential of young and old satellite cells was examined in the following conditions: young serum with exogenous Wnt3A (by itself or simultaneously with exogenous TGF β1) or old serum with exogenous FRP3 (by itself or simultaneously with TGF-β neutralization). […] In fact, consistent with the previously reported pro-myogenic activity of Wnt, Wnt3A […].
Myofiber explant cultures and primary myogenic progenitor cells were generated from C57/Bl6 mice using methods known in the art (see e.g., Conboy et al., (2003), Science, 302:1575-1577). Myoblasts were maintained in growth media (Ham's F-10, 20% FBS, 5 ng/ml basic-FGF, and penicillin-streptomycin). Opti-MEM was used to culture myofibers explants in 10% young, 10% old, or 10% young and old mouse serum (5% each). Differentiation media consisted of DMEM and 5% horse serum. Basic-FGF was obtained from Sigma (St. Louis, Mo.) and R&D systems (Minneapolis, Minn.), Opti-MEM was obtained from Invitrogen (Carlsbad, Calif.), and all other cell culture reagents were obtained from Cellgro (Herndon, Va.).

[4] = tested on: old muscle repair; experiment: Muscle regeneration after CTX injury in mice given systemic TGF-β attenuators; assay type: in vivo, mouse
Description: Five days before the end of treatment, muscle was injured. At the end of treatment, animals were sacrificed and muscle was collected. BrdU was injected (intraperitoneal) at 3 days post-injury to label proliferating, fusion-competent myoblasts.
Experiments were conducted to rejuvenate muscle repair in old tissue by attenuating TGF-β pathway activity through systemic pharmacological intervention, in vivo. Three independent attenuators were used: (1) a small molecule inhibitor of TGF-β RI Kinase, (2) TGF-β neutralizing antibody and (3) a decoy composed of the extracellular portion of TGF-β receptor II. These molecules were administered systemically to mice, twice daily. After 10 days of dosage, muscle was injured by CTX, and 5 days after injury and BrdU administration the muscle was harvested, frozen, and examined histologically.
To control for the potential differences in the half-life of anti-TGF-β neutralizing antibody as compared to TGF-β RI Kinase inhibitor, constitutive systemic delivery of these molecules was provided by osmotic subcutaneous pumps for four weeks.

[5] = tested on: TGF-β/pSmad signaling; experiment: Western blot of pSmad3 and TGF-β1 in muscle of treated old mice; assay type: in vivo, mouse; conditions: osmotic pumps
[6] = tested on: TGF-β1; experiment: ELISA of circulating TGF-β1 in treated old mice; assay type: in vivo, mouse
Description: Control injections/pumps of goat IgG yielded data typical of young and old untreated mice for muscle repair and TGF-β1 ELISA.

FGF-2: MAPK agonist FGF-2
myogenic regenerative capacity (proliferating fusion-competent myoblasts, desmin/BrdU) [1]: significantly enhanced
Delta levels [2]: induced
active Notch levels [2]: induced
levels of pERK [2]: induced

TGF-β1: recombinant TGF-β1 added to cultures or depleted sera [reference compound]
myogenic regenerative capacity (proliferating fusion-competent myoblasts, desmin/BrdU) [1]: dramatically reduced
concentration of TGF-β1 that alone suffices for inhibition of myogenic satellite cell responses ([3]; recombinant TGF-β1 added to mouse sera depleted of endogenous TGF-β1, 1-5 ng/ml and higher): 1 to 5 ng/mL

B1: Wnt3A: exogenous Wnt3A (protein, UniProt P56704 19-352, looked up)
Protein Wnt-3a: SYPIWWSLAVGPQYSSLGSQPILCASIPGLVPKQLRFCRNYVEIMPSVAEGIKIGIQECQHQFRGRRWNCTTVHDSLAIFGPVLDKATRESAFVHAIASAGVAFAVTRSCAEGTAAICGCSSRHQGSPGKGWKWGGCSEDIEFGGMVSREFADARENRPDARSAMNRHNNEAGRQAIASHMHLKCKCHGLSGSCEVKTCWWSQPDFRAIGDFLKDKYDSASEMVVEKHRESRGWVETLRPRYTYFKVPTERDLVYYEASPNFCEPNPETGSFGTRDRTCNVSSHGIDGCDLLCCGRGHNARAERRREKCRCVFHWCCYVSCQECTRVYDVHTCK
generation of fusion-competent proliferating myoblasts by satellite cells ([3]; Wnt3A simultaneously with exogenous TGF-β1, young serum): enhanced
myotube formation ([3]; exogenous Wnt3A): enhanced
presence of non-myogenic fibroblastic cells (desmin-BrdU+) ([3]; exogenous Wnt3A): actually reduced
myogenic potential in young serum ([3]; young serum with exogenous Wnt3A): did not reduce

B2: FRP: exogenous FRP3, inhibitor of Wnt (protein, UniProt Q92765 33-325, looked up)
Secreted frizzled-related …: AACEPVRIPLCKSLPWNMTKMPNHLHHSTQANAILAIEQFEGLLGTHCSPDLLFFLCAMYAPICTIDFQHEPIKPCKSVCERARQGCEPILIKYRHSWPENLACEELPVYDRGVCISPEAIVTADGADFPMDSSNGNCRGASSERCKCKPIRATQKTYFRNNYNYVIRAKVKEIKTKCHDVTAVVEVKEILKSSLVNIPRDTVNLYTSSGCLCPPLNVNEEYIIMGYEDEERSRLLLVEGSIAEKWKDRLGKKVKRWDMKLRHLGLSKSDSSNSDSTQSQKSGRNSNPRQARN
regeneration of old muscle in vivo ([4]; experimental attenuation of Wnt by FRP): did not improve
myogenic responses in old serum ([3]; old serum with exogenous FRP3): did not rescue

B3: soluble TGF-β receptor II: a decoy composed of the extracellular portion of TGF-β receptor II (protein, UniProt P37173 23-166, looked up)
extracellular domain: TIPPHVQKSVNNDMIVTDNNGAVKFPQLCKFCDVRFSTCDNQKSCMSNCSITSICEKPQEVCVAVWRKNDENITLETVCHDPKLPYHDFILEDAASPKCIMKEKKKPGETFFMCSCSSDECNDNIIFSEEYNTSNPDLLLVIFQ
modifications: extracellular domain
muscle regeneration / myogenic regenerative capacity ([4]; old mice, systemic administration twice daily, CTX injury after 10 days, 5 days post-injury): did not result in the rejuvenation
levels of TGF-β1 in old muscle [5]: not
levels of pSmad3 in old muscle [5]: not
circulating levels of TGF-β1 [6]: failed to reduce
